Source: PMC8062024
Read-outs that look alike come from different tables or passages of the source.

Substance	enzymatic_activity (N-glycosylation at N79)	expression_or_secretion (N-glycosylation at N79)	enzymatic_activity (N-glycosylation at N424)	enzymatic_activity (N-glycosylation at N170)	expression_or_secretion (N-glycosylation at N170)	expression_or_secretion (N-glycosylation at N424)
PmCOX (Penaeus monodon cyclooxygenase): N79Q	no change, secreted PGE2 8.65 nM vs 7.40 nM wild type (40 uM ARA)	no change	–	–	–	–
PmCOX (Penaeus monodon cyclooxygenase): N424Q	–	–	abolishes, secreted PGE2 2.79 nM vs 7.40 nM wild type (empty vector 2.68 nM)	–	–	–
PmCOX (Penaeus monodon cyclooxygenase): N79Q/N170Q/N424Q triple mutant	abolishes, secreted PGE2 2.23 nM vs 7.40 nM wild type (empty vector 2.68 nM)	decreases	abolishes, secreted PGE2 2.23 nM vs 7.40 nM wild type (empty vector 2.68 nM)	abolishes, secreted PGE2 2.23 nM vs 7.40 nM wild type (empty vector 2.68 nM)	decreases	decreases
PmCOX (Penaeus monodon cyclooxygenase): N170Q	–	–	–	abolishes, secreted PGE2 2.45 nM vs 7.40 nM wild type (empty vector 2.68 nM)	–	–
